Assay results as given in paper PMC7367873, “Dissecting the sequence determinants for dephosphorylation by the catalytic subunits of phosphatases PP1 and PP2A” (Nature Communications, 2020).

Columns and labels:
[1] = system: GFP-14-3-3β; assay: GFP-14-3-3β co-IP with LC-MS/MS, untreated GFP-14-3-3β versus GFP control (14-3-3 interactome); assay type: binding, human; settings: 3 replicates each
[2] = system: GFP-14-3-3β and its binding proteins; assay: GFP-14-3-3β co-IP with LC-MS/MS label-free quantification, untreated versus PP1c-treated; design: species or system human; settings: 3 replicates each
[3] = untreated vs GFP, LFQ intensities
[4] = PP1 vs untreated, LFQ intensities

Molecule | Difference (log2), PP1 vs untreated [2, 4] [log2] | Difference (log2), PP1 vs untreated ([2]; log2 difference, pairwise comparison PP1 vs untreated, label-free quantification) | Difference (log2), untreated vs GFP [1, 3] [log2] | Difference (log2), untreated vs GFP ([1]; log2 difference, pairwise comparison untreated vs GFP, label-free quantification)
CPM (protein, UniProt P14384 18-423, looked up) Carboxypeptidase M: LDFNYHRQEGMEAFLKTVAQNYSSVTHLHSIGKSVKGRNLWVLVVGRFPKEHRIGIPEFKYVANMHGDETVGRELLLHLIDYLVTSDGKDPEITNLINSTRIHIMPSMNPDGFEAVKKPDCYYSIGRENYNQYDLNRNFPDAFEYNNVSRQPETVAVMKWLKTETFVLSANLHGGALVASYPFDNGVQATGALYSRSLTPDDDVFQYLAHTYASRNPNMKKGDECKNKMNFPNGVTNGYSWYPLQGGMQDYNYIWAQCFEITLELSCCKYPREEKLPSFWNNNKASLIEYIKQVHLGVKGQVFDQNGNPLPNVIVEVQDRKHICPYRTNKYGEYYLLLLPGSYIINVTVPGHDPHITKVIIPEKSQNFSALKKDILLPFQGQLDSIPVSNPSCPMIPLYRNLPDHS | 0.5874 |  | -1.988 | 
ATXN2 (protein, UniProt Q99700 1-1313, looked up) Ataxin-2: MRSAAAAPRSPAVATESRRFAAARWPGWRSLQRPARRSGRGGGGAAPGPYPSAAPPPPGPGPPPSRQSSPPSASDCFGSNGNGGGAFRPGSRRLLGLGGPPRPFVVLLLPLASPGAPPAAPTRASPLGARASPPRSGVSLARPAPGCPRPACEPVYGPLTMSLKPQQQQQQQQQQQQQQQQQQQQQQQPPPAAANVRKPGGSGLLASPAAAPSPSSSSVSSSSATAPSSVVAATSGGGRPGLGRGRNSNKGLPQSTISFDGIYANMRMVHILTSVVGSKCEVQVKNGGIYEGVFKTYSPKCDLVLDAAHEKSTESSSGPKREEIMESILFKCSDFVVVQFKDMDSSYAKRDAFTDSAISAKVNGEHKEKDLEPWDAGELTANEELEALENDVSNGWDPNDMFRYNEENYGVVSTYDSSLSSYTVPLERDNSEEFLKREARANQLAEEIESSAQYKARVALENDDRSEEEKYTAVQRNSSEREGHSINTRENKYIPPGQRNREVISWGSGRQNSPRMGQPGSGSMPSRSTSHTSDFNPNSGSDQRVVNGGVPWPSPCPSPSSRPPSRYQSGPNSLPPRAATPTRPPSRPPSRPSRPPSHPSAHGSPAPVSTMPKRMSSEGPPRMSPKAQRHPRNHRVSAGRGSISSGLEFVSHNPPSEAATPPVARTSPSGGTWSSVVSGVPRLSPKTHRPRSPRQNSIGNTPSGPVLASPQAGIIPTEAVAMPIPAASPTPASPASNRAVTPSSEAKDSRLQDQRQNSPAGNKENIKPNETSPSFSKAENKGISPVVSEHRKQIDDLKKFKNDFRLQPSSTSESMDQLLNKNREGEKSRDLIKDKIEPSAKDSFIENSSSNCTSGSSKPNSPSISPSILSNTEHKRGPEVTSQGVQTSSPACKQEKDDKEEKKDAAEQVRKSTLNPNAKEFNPRSFSQPKPSTTPTSPRPQAQPSPSMVGHQQPTPVYTQPVCFAPNMMYPVPVSPGVQPLYPIPMTPMPVNQAKTYRAVPNMPQQRQDQHHQSAMMHPASAAGPPIAATPPAYSTQYVAYSPQQFPNQPLVQHVPHYQSQHPHVYSPVIQGNARMMAPPTHAQPGLVSSSATQYGAHEQTHAMYACPKLPYNKETSPSFYFAISTGSLAQQYAHPNATLHPHTPHPQPSATPTGQQQSQHGGSHPAPSPVQHHQHQAAQALHLASPQQQSAIYHAGLAPTPPSMTPASNTQSPQNSFPAAQQTVFTIHPSHVQPAYTNPPHMAHVPQAHVQSGMVPSHPTAHAPMMLMTTQPPGGPQAALAQSALQPIPVSTTAHFPYMTHPSVQAHHQQQL | 0.5906 |  | 1.35 | 
MMS19 (protein, UniProt Q96T76 2-1030, looked up) MMS19 nucleotide excision …: AAAAAVEAAAPMGALWGLVHDFVVGQQEGPADQVAADVKSGNYTVLQVVEALGSSLENPEPRTRARAIQLLSQVLLHCHTLLLEKEVVHLILFYENRLKDHHLVIPSVLQGLKALSLCVALPPGLAVSVLKAIFQEVHVQSLPQVDRHTVYNIITNFMRTREEELKSLGADFTFGFIQVMDGEKDPRNLLVAFRIVHDLISRDYSLGPFVEELFEVTSCYFPIDFTPPPNDPHGIQREDLILSLRAVLASTPRFAEFLLPLLIEKVDSEVLSAKLDSLQTLNACCAVYGQKELKDFLPSLWASIRREVFQTASERVEAEGLAALHSLTACLSRSVLRADAEDLLDSFLSNILQDCRHHLCEPDMKLVWPSAKLLQAAAGASARACDSVTSNVLPLLLEQFHKHSQSSQRRTILEMLLGFLKLQQKWSYEDKDQRPLNGFKDQLCSLVFMALTDPSTQLQLVGIRTLTVLGAQPDLLSYEDLELAVGHLYRLSFLKEDSQSCRVAALEASGTLAALYPVAFSSHLVPKLAEELRVGESNLTNGDEPTQCSRHLCCLQALSAVSTHPSIVKETLPLLLQHLWQVNRGNMVAQSSDVIAVCQSLRQMAEKCQQDPESCWYFHQTAIPCLLALAVQASMPEKEPSVLRKVLLEDEVLAAMVSVIGTATTHLSPELAAQSVTHIVPLFLDGNVSFLPENSFPSRFQPFQDGSSGQRRLIALLMAFVCSLPRNVEIPQLNQLMRELLELSCCHSCPFSSTAAAKCFAGLLNKHPAGQQLDEFLQLAVDKVEAGLGSGPCRSQAFTLLLWVTKALVLRYHPLSSCLTARLMGLLSDPELGPAAADGFSLLMSDCTDVLTRAGHAEVRIMFRQRFFTDNVPALVQGFHAAPQDVKPNYLKGLSHVLNRLPKPVLLPELPTLLSLLLEALSCPDCVVQLSTLSCLQPLLLEAPQVMSLHVDTLVTKFLNLSSSPSMAVRIAALQCMHALTRLPTPVLLPYKPQVIRALAKPLDDKKRLVRKEAVSARGEWFLLGSPGS | 0.6094 |  | 1.425 | 

The next lines start with results.

Difference (log2), PP1 vs untreated [2, 4] [log2] | Difference (log2), PP1 vs untreated ([2]; log2 difference, pairwise comparison PP1 vs untreated, label-free quantification) | Molecule | Difference (log2), untreated vs GFP [1, 3] [log2] | Difference (log2), untreated vs GFP ([1]; log2 difference, pairwise comparison untreated vs GFP, label-free quantification)
0.596 |  | CPT1A (protein, UniProt P50416 2-773, looked up) Carnitine …: AEAHQAVAFQFTVTPDGIDLRLSHEALRQIYLSGLHSWKKKFIRFKNGIITGVYPASPSSWLIVVVGVMTTMYAKIDPSLGIIAKINRTLETANCMSSQTKNVVSGVLFGTGLWVALIVTMRYSLKVLLSYHGWMFTEHGKMSRATKIWMGMVKIFSGRKPMLYSFQTSLPRLPVPAVKDTVNRYLQSVRPLMKEEDFKRMTALAQDFAVGLGPRLQWYLKLKSWWATNYVSDWWEEYIYLRGRGPLMVNSNYYAMDLLYILPTHIQAARAGNAIHAILLYRRKLDREEIKPIRLLGSTIPLCSAQWERMFNTSRIPGEETDTIQHMRDSKHIVVYHRGRYFKVWLYHDGRLLKPREMEQQMQRILDNTSEPQPGEARLAALTAGDRVPWARCRQAYFGRGKNKQSLDAVEKAAFFVTLDETEEGYRSEDPDTSMDSYAKSLLHGRCYDRWFDKSFTFVVFKNGKMGLNAEHSWADAPIVAHLWEYVMSIDSLQLGYAEDGHCKGDINPNIPYPTRLQWDIPGECQEVIETSLNTANLLANDVDFHSFPFVAFGKGIIKKCRTSPDAFVQLALQLAHYKDMGKFCLTYEASMTRLFREGRTETVRSCTTESCDFVRAMVDPAQTVEQRLKLFKLASEKHQHMYRLAMTGSGIDRHLFCLYVVSKYLAVESPFLKEVLSEPWRLSTSQTPQQQVELFDLENNPEYVSSGGGFGPVADDGYGVSYILVGENLINFHISSKFSCPETDSHRFGRHLKEAMTDIITLFGLSSNSKK | 1.035 | 
 | 2.218 | DDX20 (protein, UniProt Q9UHI6 1-824, looked up) Probable ATP-dependent RNA …: MAAAFEASGALAAVATAMPAEHVAVQVPAPEPTPGPVRILRTAQDLSSPRTRTGDVLLAEPADFESLLLSRPVLEGLRAAGFERPSPVQLKAIPLGRCGLDLIVQAKSGTGKTCVFSTIALDSLVLENLSTQILILAPTREIAVQIHSVITAIGIKMEGLECHVFIGGTPLSQDKTRLKKCHIAVGSPGRIKQLIELDYLNPGSIRLFILDEADKLLEEGSFQEQINWIYSSLPASKQMLAVSATYPEFLANALTKYMRDPTFVRLNSSDPSLIGLKQYYKVVNSYPLAHKVFEEKTQHLQELFSRIPFNQALVFSNLHSRAQHLADILSSKGFPAECISGNMNQNQRLDAMAKLKHFHCRVLISTDLTSRGIDAEKVNLVVNLDVPLDWETYMHRIGRAGRFGTLGLTVTYCCRGEEENMMMRIAQKCNINLLPLPDPIPSGLMEECVDWDVEVKAAVHTYGIASVPNQPLKKQIQKIERTLQIQKAHGDHMASSRNNSVSGLSVKSKNNTKQKLPVKSHSECGIIEKATSPKELGCDRQSEEQMKNSVQTPVENSTNSQHQVKEALPVSLPQIPCLSSFKIHQPYTLTFAELVEDYEHYIKEGLEKPVEIIRHYTGPGDQTVNPQNGFVRNKVIEQRVPVLASSSQSGDSESDSDSYSSRTSSQSKGNKSYLEGSSDNQLKDSESTPVDDRISLEQPPNGSDTPNPEKYQESPGIQMKTRLKEGASQRAKQSRRNLPRRSSFRLQTEAQEDDWYDCHREIRLSFSDTYQDYEEYWRAYYRAWQEYYAAASHSYYWNAQRHPSWMAAYHMNTIYLQEMMHSNQ |  | -0.1781
0.5963 |  | RASAL2 (protein, UniProt Q9UJF2 1-1139, looked up) Ras GTPase-activating protein …: MQTPEVPAERSPRRRSISGTSTSEKPNSMDTANTSPFKVPGFFSKRLKGSIKRTKSQSKLDRNTSFRLPSLRSTDDRSRGLPKLKESRSHESLLSPCSTVECLDLGRGEPVSVKPLHSSILGQDFCFEVTYLSGSKCFSCNSASERDKWMENLRRTVQPNKDNCRRAENVLRLWIIEAKDLAPKKKYFCELCLDDTLFARTTSKTKADNIFWGEHFEFFSLPPLHSITVHIYKDVEKKKKKDKNNYVGLVNIPTASVTGRQFVEKWYPVSTPTPNKGKTGGPSIRIKSRFQTITILPMEQYKEFAEFVTSNYTMLCSVLEPVISVRNKEELACALVHILQSTGRAKDFLTDLVMSEVDRCGEHDVLIFRENTIATKSIEEYLKLVGQQYLHDALGEFIKALYESDENCEVDPSKCSSSELIDHQSNLKMCCELAFCKIINSYCVFPRELKEVFASWKQQCLNRGKQDISERLISASLFLRFLCPAIMSPSLFNLMQEYPDDRTSRTLTLIAKVIQNLANFAKFGNKEEYMAFMNDFLEHEWGGMKRFLLEISNPDTISNTPGFDGYIDLGRELSVLHSLLWEVVSQLDKGENSFLQATVAKLGPLPRVLADITKSLTNPTPIQQQLRRFTEHNSSPNVSGSLSSGLQKIFEDPTDSDLHKLKSPSQDNTDSYFRGKTLLLVQQASSQSMTYSEKDERESSLPNGRSVSLMDLQDTHAAQVEHASVMLDVPIRLTGSQLSITQVASIKQLRETQSTPQSAPQVRRPLHPALNQPGGLQPLSFQNPVYHLNNPIPAMPKASIDSSLENLSTASSRSQSNSEDFKLSGPSNSSMEDFTKRSTQSEDFSRRHTVPDRHIPLALPRQNSTGQAQIRKVDQGGLGARAKAPPSLPHSASLRSTGSMSVVSAALVAEPVQNGSRSRQQSSSSRESPVPKVRAIQRQQTQQVQSPVDSATMSPVERTAAWVLNNGQYEEDVEETEQNLDEAKHAEKYEQEITKLKERLRVSSRRLEEYERRLLVQEQQMQKLLLEYKARLEDSEERLRRQQEEKDSQMKSIISRLMAVEEELKKDHAEMQAVIDAKQKIIDAQEKRIVSLDSANTRLMSALTQVKERYSMQVRNGISPTNPTKLSITENGEFKNSSC | 1.812 | 
